B1: Cytochrome b5, P00171 (parent)
chain: MAEESSKAVKYYTLEEIQKHNNSKSTWLILHYKVYDLTKFLEEHPGGEEVLREQAGGDATENFEDVGHSTDARELSKTFIIGELHPDDRSKITKPSESIITTIDSNPSWWTNWLIPAISALFVALIYHLYTSEN

Variants of: B1
Conditions: Bos taurus, pH 7, Absorbance, phosphate 0.1 M, reversible: yes, structure 1CYO, whole UniProt chain shown

Row | Variant | ddG of mutation (higher = less stable) (30 °C, Urea) | denaturant midpoint (higher = more stable) (30 °C, Urea) | ddG of mutation (higher = less stable) (66.2 °C, Thermal) | unfolding enthalpy (van 't Hoff) (66.2 °C, Thermal) | Tm (Thermal) | change of melting temperature, mutant - wild type (higher = more stable) (Thermal) | unfolding enthalpy (van 't Hoff) (Thermal)
1 | MAEESSKAVKYYTLEEIQKHNNSKSTWLILHYKVYDLTKYLEEHPGGEEVLREQAGGDATENFEDVGHSTDARELSKTFIIGELHPDDRSKITKPSESIITTIDSNPSWWTNWLIPAISALFVALIYHLYTSEN [F40Y] | -1.03 kcal/mol | 8.3 M | -0.79 kcal/mol | 86.4 kcal/mol | 69.6 °C | 3.4 °C | 86.4 kcal/mol
2 | MAEESSKAVKYYTLEEIQKHNNSKSTWLILHYKVYDLTKLLEEHPGGEEVLREQAGGDATENFEDVGHSTDARELSKTFIIGELHPDDRSKITKPSESIITTIDSNPSWWTNWLIPAISALFVALIYHLYTSEN [F40L] | 1.87 kcal/mol | 4.9 M | 1.87 kcal/mol |  | 59.1 °C | -7.1 °C | 104 kcal/mol
3 | MAEESSKAVKYYTLEEIQKHNNSKSTWLILHYKVYDLTKHLEEHPGGEEVLREQAGGDATENFEDVGHSTDARELSKTFIIGELHPDDRSKITKPSESIITTIDSNPSWWTNWLIPAISALFVALIYHLYTSEN [F40H] |  |  | 2.82 kcal/mol |  | 54.9 °C | -11.3 °C | 94.7 kcal/mol
